Data published in the Immune Epitope Database (IEDB).

Key:
HLA-A*02:03 = assay: IEDB peptide-MHC binding, purified MHC/direct/fluorescence; filed as Kd, often an IC50 or EC50 that approximates it; ≥ and ≤ were set here for values at or beyond the usual limits of such assays; details: source organism: Influenza A virus (A/ruddy turnstone/Delaware/67/1998(H12N4))
HLA-A*02:12 = assay: as above; details: source organism: Influenza A virus (A/ruddy turnstone/Delaware/67/1998(H12N4))
HLA-A*02:19 [1] = assay: as above; details: source organism: Influenza A virus (A/ruddy turnstone/Delaware/67/1998(H12N4))
HLA-A*11:01 = assay: as above
HLA-A*68:02 = assay: as above; details: source organism: Influenza A virus (A/ruddy turnstone/Delaware/67/1998(H12N4))
HLA-A*26:01 = assay: IEDB peptide-MHC binding, purified MHC/competitive/fluorescence; filed as Kd, often an IC50 or EC50 that approximates it; ≥ and ≤ were set here for values at or beyond the usual limits of such assays; details: source organism: Influenza A virus (A/ruddy turnstone/Delaware/67/1998(H12N4))
HLA-A*69:01 [2] = assay: as above; details: source organism: Influenza A virus (A/ruddy turnstone/Delaware/67/1998(H12N4))
HLA-B*18:01 [3] = assay: as above; details: source organism: Influenza A virus (A/ruddy turnstone/Delaware/67/1998(H12N4))
HLA-B*27:03 = assay: as above; details: source organism: Influenza A virus (A/ruddy turnstone/Delaware/67/1998(H12N4))
HLA-B*39:01 = assay: as above; details: source organism: Influenza A virus (A/ruddy turnstone/Delaware/67/1998(H12N4))
HLA-B*46:01 [4] = assay: as above; details: source organism: Influenza A virus (A/ruddy turnstone/Delaware/67/1998(H12N4))
HLA-B*51:01 = assay: as above; details: source organism: Influenza A virus (A/ruddy turnstone/Delaware/67/1998(H12N4))
HLA-B*57:01 [5] = assay: as above; details: source organism: Influenza A virus (A/ruddy turnstone/Delaware/67/1998(H12N4))
HLA-A*01:01 = assay: IEDB peptide-MHC binding, purified MHC/direct/fluorescence; filed as Kd, often an IC50 or EC50 that approximates it; ≥ and ≤ were set here for values at or beyond the usual limits of such assays
HLA-A*02:01 [6] = assay: as above
HLA-A*03:01 = assay: as above
HLA-B*07:02 = assay: as above
HLA-B*15:01 = assay: as above
HLA-B*15:17 = assay: as above
HLA-B*27:05 = assay: as above
HLA-B*57:01 [7] = assay: as above
HLA-B*58:01 = assay: as above
HLA-A*02:01 [8] = assay: IEDB peptide-MHC binding, purified MHC/competitive/fluorescence; filed as Kd, often an IC50 or EC50 that approximates it; ≥ and ≤ were set here for values at or beyond the usual limits of such assays; details: source organism: Burkholderia mallei SAVP1
HLA-A*02:19 [9] = assay: as above; details: source organism: Burkholderia mallei SAVP1
HLA-A*31:01 = assay: IEDB peptide-MHC binding, purified MHC/direct/fluorescence; filed as Kd, often an IC50 or EC50 that approximates it; ≥ and ≤ were set here for values at or beyond the usual limits of such assays; details: source organism: Bacillus anthracis
HLA-A*69:01 [10] = assay: as above; details: source organism: Bacillus anthracis
HLA-B*08:01 = assay: as above; details: source organism: Bacillus anthracis str. A2012
HLA-B*18:01 [11] = assay: as above; details: source organism: Bacillus anthracis
HLA-B*40:01 = assay: as above; details: source organism: Bacillus anthracis
HLA-B*46:01 [12] = assay: as above; details: source organism: Bacillus anthracis
HLA-B*48:01 = assay: as above; details: source organism: Bacillus anthracis
[13] = source organism: Coxiella burnetii
[14] = source organism: Bacillus anthracis

Work on IVFMWAIHH yielded a Kd (HLA-A*02:03) of no less than 20 µM, a Kd (HLA-A*02:12) of no less than 20 µM and a Kd (HLA-A*02:19 [1]) of no less than 20 µM. The Kd (HLA-A*11:01; source organism: Influenza A virus (A/ruddy turnstone/Delaware/67/1998(H12N4))) was 0.187 µM, the Kd (HLA-A*68:02) was no less than 20 µM and the Kd (HLA-A*26:01) was no less than 20 µM. It also gave a Kd (HLA-A*69:01 [2]) of no less than 20 µM, a Kd (HLA-B*18:01 [3]) of no less than 20 µM and a Kd (HLA-B*27:03) of no less than 20 µM. The Kd (HLA-B*39:01) was no less than 20 µM, the Kd (HLA-B*46:01 [4]) was no less than 20 µM and the Kd (HLA-B*51:01) was no less than 20 µM. It also gave a Kd (HLA-B*57:01 [5]) of no less than 20 µM.

ITLYEYDHF was tested, and the Kd (HLA-A*01:01; [13]) was no less than 20 µM, the Kd (HLA-A*02:01 [6]; [13]) was no less than 20 µM and the Kd (HLA-A*03:01; [13]) was no less than 20 µM. The Kd (HLA-B*07:02; [13]) was no less than 20 µM, the Kd (HLA-B*15:01; [13]) was no less than 20 µM and the Kd (HLA-B*15:17; [13]) was 0.0126 µM. For the same sequence, the Kd (HLA-B*27:05; [13]) was no less than 20 µM, the Kd (HLA-B*57:01 [7]; [13]) was 0.13 µM and the Kd (HLA-B*58:01; [13]) was 0.885 µM.

IMALKQAGL gave a Kd (HLA-A*02:01 [8]) of 0.0445 µM and a Kd (HLA-A*02:19 [9]) of 0.0045 µM.

With PTDYAKPQY the Kd (HLA-A*01:01; [14]) was 0.0525 µM, the Kd (HLA-A*02:01 [6]; [14]) was no less than 20 µM and the Kd (HLA-A*03:01; [14]) was no less than 20 µM. For the same sequence, the Kd (HLA-A*11:01; [14]) was no less than 20 µM, the Kd (HLA-A*31:01) was no less than 20 µM and the Kd (HLA-A*69:01 [10]) was no less than 20 µM. For the same sequence, the Kd (HLA-B*07:02; [14]) was no less than 20 µM, the Kd (HLA-B*08:01) was no less than 20 µM and the Kd (HLA-B*15:01; [14]) was no less than 20 µM. It also gave a Kd (HLA-B*15:17; [14]) of no less than 20 µM, a Kd (HLA-B*18:01 [11]) of no less than 20 µM and a Kd (HLA-B*27:05; [14]) of no less than 20 µM. It also gave a Kd (HLA-B*40:01) of no less than 20 µM, a Kd (HLA-B*46:01 [12]) of no less than 20 µM and a Kd (HLA-B*48:01) of no less than 20 µM. For the same sequence, the Kd (HLA-B*57:01 [7]; [14]) was no less than 20 µM and the Kd (HLA-B*58:01; [14]) was no less than 20 µM.
